Patent US20100158968A1

Key:
[1] = target: mitogen-activated protein kinase-activated protein kinase 2 (human MK2) (human), P49137; experiment: kinase inhibition, radiometric assay; conditions: modification not given
[2] = target: PKCδ (h) (protein kinase C) (human), Q05655; experiment: cell-based or functional assay
PKCδ (h) (protein kinase C) (human), Q05655, sequence (Q05655 whole entry, stated change not applied): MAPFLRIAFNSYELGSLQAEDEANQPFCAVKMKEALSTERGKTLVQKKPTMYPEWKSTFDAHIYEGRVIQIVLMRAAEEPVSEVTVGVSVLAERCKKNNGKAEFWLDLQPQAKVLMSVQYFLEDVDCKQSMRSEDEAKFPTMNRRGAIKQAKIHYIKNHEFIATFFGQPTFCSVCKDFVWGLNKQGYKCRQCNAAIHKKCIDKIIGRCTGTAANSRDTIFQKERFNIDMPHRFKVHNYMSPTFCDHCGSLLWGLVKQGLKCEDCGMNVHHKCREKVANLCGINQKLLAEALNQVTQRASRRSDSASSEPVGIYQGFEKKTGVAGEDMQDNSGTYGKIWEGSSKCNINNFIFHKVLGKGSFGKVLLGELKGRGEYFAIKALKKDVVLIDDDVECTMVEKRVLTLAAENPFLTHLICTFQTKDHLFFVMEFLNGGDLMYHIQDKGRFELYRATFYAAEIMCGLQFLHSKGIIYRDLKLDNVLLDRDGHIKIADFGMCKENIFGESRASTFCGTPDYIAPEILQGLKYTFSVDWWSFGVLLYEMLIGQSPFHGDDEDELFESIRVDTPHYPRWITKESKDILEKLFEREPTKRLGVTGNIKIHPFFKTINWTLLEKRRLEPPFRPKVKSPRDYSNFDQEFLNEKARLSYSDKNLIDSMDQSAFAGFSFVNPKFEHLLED

mitogen-activated protein kinase-activated protein kinase 2 (human MK2) (human), P49137, sequence (P49137 46-400): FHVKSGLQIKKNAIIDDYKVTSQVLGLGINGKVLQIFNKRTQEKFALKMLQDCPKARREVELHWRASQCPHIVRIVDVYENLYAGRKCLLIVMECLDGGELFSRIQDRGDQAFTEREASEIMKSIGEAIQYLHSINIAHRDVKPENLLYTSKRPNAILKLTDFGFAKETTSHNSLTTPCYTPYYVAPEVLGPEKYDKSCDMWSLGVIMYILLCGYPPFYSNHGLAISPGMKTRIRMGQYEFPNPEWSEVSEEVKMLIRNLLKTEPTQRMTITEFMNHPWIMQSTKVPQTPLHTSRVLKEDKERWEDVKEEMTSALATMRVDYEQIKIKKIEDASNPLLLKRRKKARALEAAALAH

B1: … (peptide)
chain: YARAAARQARAKALARQLAVA
- IC50 [1]: 28.4 µM

B2: … (peptide)
peptide: YARAAARQARALARQLGVAA
- Kinase Activity, peptide at 300 µM, radiometric assay [2]: 101%

B3: … (peptide)
chain: YARAAARQARAKALNRQLAVA
- IC50 [1]: 18.9 µM

B4: … (peptide)
peptide: YARAAARQARALNRQLGVAA
- Kinase Activity, peptide at 300 µM, radiometric assay [2]: 105%

B5: … (peptide)
peptide: KAFAKLAARLYRLARQLGVAA
- Kinase Activity, peptide at 100 µM, radiometric assay [2]: 24%

B6: … (peptide)
peptide: FAKLAARLYRLARQLGVAA
- Kinase Activity, peptide at 100 µM, radiometric assay [2]: 40%

B7: … (peptide)
chain: FAKLAARLYRKALARQLGVAA
- IC50 [1]: 1.77 µM

B8: … (peptide)
chain: WLRRIKAWLRRIKALNRQLGVAA
- IC50 [1]: 0.737 µM
- Kinase Activity, peptide at 30 µM, radiometric assay [2]: 11%
